# Assay results published in US20030130324A1, “METHOD FOR PREVENTING OR CONTROLLING CATARACT” (priority 1993, published 2003).
# B1: α2-macroglobulin (protein, UniProt Q7SIH1 24-1510, looked up)
# Alpha-2-macroglobulin: SVSGKPQYMVLVPSLLHTETPEKGCLLLSHLNETVTVSASLESVRENRSLFTDVVAEKDLFHCVSFTLPRSPTSQEVMFLTIQVKGPTQEFKKRTTVLVKNEESLVFVQTDKPIYKPEQTVKFRIVLLDESFHPLNELVPLVYVEDPKGNRIAQWQNLEVENGLQQLTFPLSSEPFQGSYKVVVQKGSGGTAEHPFTVEEFVLPKFEVQVRMPKIITILEEEVQVSVCGLYTYGKPVPGRVTMNMCRKYRNPSNCYGEESNAVCEKFSGELNNEGCFSQQVNTKIFQLKRQEFEMKIEVEAKIQEEGTEVELTGKGATEITTTITKLSFVTVDSNLRRGIPFTGKVLLVDGKGVPMPNKVIFITANEANHNSNTTTDEHGLAQFSITTTKIKGTSLSIRVKYKDHSPCYGYQWLSEEHQDAYHSANLVFSRSNSFVYLEPLPRELPCGKTQTVQAHYVLKGQVLKDLKELVFYYLIMAKGGIVRSGTHTLPVEQGDMQGHFSMSVPVESDIAPVARLLIYAILPDGEVVGDSARYEIEHCLANKVGLNFSPGQSFPASQAHLRVTASPQSLCALRAVDQSVLLMRPEAELSAATVYNLLPVKDLSSFPSSVNQQEEDNEDCISHDNVYINGIMYFPVSNTNEKDMYSFLQDMGLKAFTNSKIHKPKICPQPEEHRIQHHTLLASPVRAEMGRNRDFVHFDDTSEPPTETVRKYFPETWIWDLVVVSSSGVHEVEVTVPDTITEWKAGALCLSRDTGLGLSPTASLRVFQPFFVELTMPYSVIRGEAFTLKATVLNYLPKCIRVSVQLEASPAFLAVPEKEQETYCICGNGRQTVSWAVTPKSLGNVNFTVSAEAVESQELCGSEVPVVPEHGRKDTIIKPLLVEPEGLEKEVIFNSLLCPSVDFVFLGAEDGGQVLRHFPPAAATDTAADAHDPARPGAKVSESLSLKLPPNVVEESARASFSVLGDILGSAMRNTQNLLQMPYGCGEQNMARFAPNIYVLDYLNETQQLTAELKSKAILYLNTGYQRQLLYKHFDGSYSTFGEHRGNSEGNTWLTAFVLKSFAQARGYIFIDEAHITEALTWLAQKQKSNGCFRSTGTLLNNAIKGGVDDEVTLSAYITIALLEMPLPVTHPVVRNALFCLDSAWKSAKEGSQGSHVYTKALLAYAFALAGNQERRTEVLTSLYEEAVKEDNTIHWTRPQKPRLLTEDIYQPRAPSAEVEMTAYVILAHVTAQPAPNPEDLKRATSIVKWISKQQNCQGGFSSTQDTVVALHALSRYGAATFTSARKAAQVTIQSSGTFSTKFQVENSNRLLLQQVSLPEVPGEYSMSVTGEGCVYLQTSLKYNILPKKDEFPFALEVQTLPQTCDGPKAHTSFQISLSVSYIGSRPASNMAIVDVKMVSGFIPLKPTVKMLERSNVSRTEVSNNHVLIYLDKVTNETLTLTFTVLQDIPVRDLKPAIVKVYDYYETDEFAVAEYSAPCSKDIGNA
# notes: α2-macroglobulin prepared from bovine plasma, Boehringer Mannheim Australia #602 442
# Key:
# [1] = tested on: lens epithelial explants; test: Influence of TGFβ alone and in combination with FGF on lens epithelial explants (standard method); assay type: cell-based, rat; details: TGFβ 20 ng/ml, up to 5 days culture; summary of Example 1
# Method: Lens explants were prepared from both postnatal and adult rats and changes during 5 days culture with growth factor(s) were monitored by light and electron microscopy, immunolocalisation of laminin, heparan sulphate proteoglycan and fibre-specific crystallins, and crystallin ELISAs.
# Each experiment involved culturing explants for up to 5 days without added growth factors (controls), with TGFβ, with a combination of TGFβ and FGF (TGFβ/FGF), or with FGF alone. FGF is another growth factor that influences lens cell behaviour (Chamberlain and McAvoy, 1989; McAvoy et al., 1991). In some experiments, explants were prepared by a standard method used in our laboratory in which the adhering capsule serves as the substratum for the cells. In others, explants were inverted onto a laminin substratum. The latter method allows cell attachment, spreading and migration to be monitored as well as providing good visualisation of individual cells. […]
# Explants used for immunofluorescent localisation were collected at the end of the culture period, fixed in Carnoy's fixative for 20 min at room temperature, transferred to 70% ethanol, then covered with a drop of melted 2.5% agar, before dehydrating in ethanol and embedding in paraffin. […] Controls for non-specific fluorescence were included routinely, that is, sections were treated with non-immune rabbit serum instead of specific antibody. […]
# [2] = tested on: lens epithelial explants; test: Lens epithelial explants cultured on laminin substratum with TGFβ and/or FGF; assay type: cell-based, rat; details: explants from 21-day-old rats, TGFβ 20 ng/ml, in the presence or absence of FGF 2 ng/ml, 5 day culture
# Method: Each experiment involved culturing explants for up to 5 days without added growth factors (controls), with TGFβ, with a combination of TGFβ and FGF (TGFβ/FGF), or with FGF alone. FGF is another growth factor that influences lens cell behaviour (Chamberlain and McAvoy, 1989; McAvoy et al., 1991). In some experiments, explants were prepared by a standard method used in our laboratory in which the adhering capsule serves as the substratum for the cells. In others, explants were inverted onto a laminin substratum. The latter method allows cell attachment, spreading and migration to be monitored as well as providing good visualisation of individual cells.
# Bovine brain basic FGF was prepared and stored at −20° C. as described by Chamberlain and McAvoy (1989). Ultrapure natural human TGFβ1 was obtained from Genzyme (Cambridge, Mass.) and stored at −80° C. Working stock solutions of TGFβ and FGF were prepared (in culture medium or 1% bovine serum albumin—0.5 M NaCl in phosphate-buffered saline, respectively) and centrifuged at 10,000 g for 10 min at 4° C. just before use.
# This method is as described by Hales et al (1992) Briefly, on the day before the experiment, culture dishes were pre-coated with laminin. […] Responses were monitored daily by phase contrast microscopy.
# [3] = tested on: TGFβ-induced cataract-like changes in rat lens epithelial explants; test: Explant study using α2-macroglobulin to inhibit TGFβ-induced cataract-like changes; assay type: cell-based; parameters: key to cataract-like changes: extent of spindle-like elongation: −, negligible change or reverted to predominantly epithelial morphology; +-++++, indicates extent of spindle-like elongation; +-++++, indicates extent of spindle-like elongation; +-++++, indicates extent of spindle-like elongation; +-++++, indicates extent of spindle-like elongation; †-††††, indicates extent of cell loss; †-††††, indicates extent of cell loss; †-††††, indicates extent of cell loss; †-††††, indicates extent of cell loss; o, elongation assessment was invalidated by cell loss
# Method: α2-macroglobulin prepared from bovine plasma was obtained from Boehringer Mannheim Australia (Castle Hill, NSW; #602 442). Lens epithelial explants (2 per culture dish) were prepared from 21-day-old rats as described previously (See Example 1, Standard Method). α2-macroglobulin was dissolved in culture medium (defined in Example 1) at a final concentration of 400 μg/ml. The solution was sterilised by passing through a 0.22 μm filter and a portion was diluted with an equal volume of sterile medium. These solutions were equilibrated at 37° C. in 5% CO2/air before use. A stock solution containing 25 pg/10 μl TGFβ2 (Genzyme, Cambridge, Mass.) was prepared in sterile medium. Six treatment groups were then set up by replacing medium in culture dishes containing explants with 1 ml medium or 1 ml medium containing 200 or 400 μg/ml α2-macroglobulin, with or without added TGFβ, as indicated in Table 2. Explants were cultured and monitored for cataract-like changes by phase contrast microscopy. In particular, each explant was graded according to the extent of spindle-like elongation and cell death, which are characteristically observed in explants cultured with TGFβ (See Examples 1 and 2). Explants were photographed on days 3-5.
# [4] = Day 4, TGFβ2 25 pg/ml, α2-MG 200 μg/ml
# [5] = Day 4, TGFβ2 25 pg/ml, α2-MG 400 μg/ml
# [6] = Day 5, TGFβ2 25 pg/ml, α2-MG 200 μg/ml
# [7] = Day 5, TGFβ2 25 pg/ml, α2-MG 400 μg/ml
molecule,measurement,setting,value
TGFβ: Ultrapure natural human TGFβ1 obtained from Genzyme (Example 1),cell elongation in explants,[1],extensive and rapid elongation
same,other TGFβ-induced cataract-like responses in explants,[1],"induced accumulation of extracellular matrix, capsule wrinkling, cell death by apoptosis and distinctive arrangements of cells"
same,cell spreading and migration onto laminin substratum,[2],inhibited spreading and migration
B1,cataract-like changes: extent of spindle-like elongation,"[3]; Day 2, TGFβ2 0 pg/ml, α2-MG 200 μg/ml",−
same,cataract-like changes: extent of spindle-like elongation,"[3]; Day 2, TGFβ2 0 pg/ml, α2-MG 400 μg/ml",−
same,cataract-like changes: extent of spindle-like elongation,"[3]; Day 2, TGFβ2 25 pg/ml, α2-MG 200 μg/ml",−
same,cataract-like changes: extent of spindle-like elongation,"[3]; Day 2, TGFβ2 25 pg/ml, α2-MG 400 μg/ml",−
same,cataract-like changes: extent of spindle-like elongation,"[3]; Day 3, TGFβ2 0 pg/ml, α2-MG 200 μg/ml",−
same,cataract-like changes: extent of spindle-like elongation,"[3]; Day 3, TGFβ2 0 pg/ml, α2-MG 400 μg/ml",−
same,cataract-like changes: extent of spindle-like elongation,"[3]; Day 3, TGFβ2 25 pg/ml, α2-MG 200 μg/ml","+ (+-++++, indicates extent of spindle-like elongation)"
same,cataract-like changes: extent of spindle-like elongation,"[3]; Day 3, TGFβ2 25 pg/ml, α2-MG 400 μg/ml","+ (+-++++, indicates extent of spindle-like elongation)"
same,cataract-like changes: extent of spindle-like elongation,"[3]; Day 4, TGFβ2 0 pg/ml, α2-MG 200 μg/ml",−
same,cataract-like changes: extent of spindle-like elongation,"[3]; Day 4, TGFβ2 0 pg/ml, α2-MG 400 μg/ml",−
same,cataract-like changes: extent of cell loss,[3]; [4],"† (†-††††, indicates extent of cell loss)"
same,cataract-like changes: extent of spindle-like elongation,[3]; [4],"+ (+-++++, indicates extent of spindle-like elongation)"
same,cataract-like changes: extent of cell loss,[3]; [5],"† (†-††††, indicates extent of cell loss)"
same,cataract-like changes: extent of spindle-like elongation,[3]; [5],"+ (+-++++, indicates extent of spindle-like elongation)"
same,cataract-like changes: extent of spindle-like elongation,"[3]; Day 5, TGFβ2 0 pg/ml, α2-MG 200 μg/ml",−
same,cataract-like changes: extent of spindle-like elongation,"[3]; Day 5, TGFβ2 0 pg/ml, α2-MG 400 μg/ml",−
same,cataract-like changes: extent of cell loss,[3]; [6],"† (†-††††, indicates extent of cell loss)"
same,cataract-like changes: extent of spindle-like elongation,[3]; [6],−
same,cataract-like changes: extent of cell loss,[3]; [7],"† (†-††††, indicates extent of cell loss)"
same,cataract-like changes: extent of spindle-like elongation,[3]; [7],−
same,inhibition of TGFβ-induced changes,"[3]; TGFβ2 25 pg/ml, α2-macroglobulin 200 or 400 μg/ml, days 2-5",substantially inhibited
same,changes in explants cultured without TGFβ,"[3]; medium containing α2-macroglobulin 200 or 400 μg/ml, no TGFβ, throughout the culture period",No significant changes
